Assay: protease stability score; higher = more stable; yeast display proteolysis, trypsin and chymotrypsin;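 also: log10 excess protease needed over predicted unfolded state with 0 meaning unfolded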

| Sequence | protease stability score |
| --- | --- |
| DERDVKRVEEWVKAEHTGDKDKMKELLDENAEIQIGDRSITGRETRAEELRKRQEQMRVRFRKVDFQHRNGQARVDMDVQNDHNGKPHTHRVDANFQLHNGKVQRVKMTSHK | 0.099 |
| DERDVKSVIDLVKTGDFDQMVRNADKDVKIRIGDKHVHGREQASEAMKKFTDQIDHYEVKSVNVNNGRVIVEAVFVVNGEKITVTVIVEAQNGRITHVEWRYRDEHDKKLLRKILG | 1.47 |
| DEREAASVAMRAAQAFVTGDEKTFVDNVDPNARVTVGDKHLHGREHIQDHIRKLKTRVDHHEIHDYKVHGNKATMDVRVVFDGRTRDKKIFAVAHNGRVQEMRVEDG | -0.299 |
| DEREAENARNYQENQKTNNPQKLQELVDPNVHWQVGDKSYKGRETQKKEMDNKRNHIREHIEHVEVRSHGDKVEAKYTAYADINGDPVRMRFDQVMVVHNGRLTEVNVDMSEDQKRKQES | -0.46 |
| DEREAKKVVEDLKRGDWNKLMQLVDPNAKAVVGDKRVHGREQVQHMMQQFQDRIDHMEIRSVRVHNGRIEVDATFIFNGQSVRVIFHITVHNGRIQEIHVQATNEKVKHQLRKFLS | 1.07 |
| DEREARDVQHRINKNDPQSHEDQVDEDVKLQIGDTTWHGREELNDVIRRVRESADHIKYERVEVDGDTVVADVVYTINGKNIKLRLVVHVKNGRIKYMNMTATNPDDLRTLNEIIQ | 1.25 |
| DEREEAKRLWERFVRAIQHGDERRLRELLPPDVRVTVGDKEYHGRDQAVTWLQELAERVDHVSFDVRHIEVENGRLDIDAKVQMENNGRQHSFTLRIIADDHNGKFVIRSITYQ | 1.84 |
| DEREEEKMAEDLLNAVERNNPDHAQKMVDENARVVIGDKDVHGRERMREAIKRQKEQFDRFRWTDVKVDNGRVRAQAVYERNGRTHHVDLNAVIHNGRAKSVRIEEK | 0.022 |
| DEREHAEDYARQLDKAFRTGNPDEVMKQVDKDAHFQVGERRFHGEDEFKKWAEEVFERADHIHFRVREVTRQGDKIDVDMQVDMTTNGKRETDKVRALIDTQNGRQRVDEMTFK | 0.651 |
| DEREKEHVEEFLRNWEEGNQDNLMRLADPNVRLQIGDHEIHGREQLAKHVDDERKQMRVSMQIKSVDAHNGRIHIQAERESQHDGNPTKESLVITFVLRNGRIQEVSYKRQQ | 0.959 |
| DERELDNASRVATNIATGDEEKVVKLADENAKLNVGDNEVHGTEQATREVKKTQNDLRRNVESFEIDKNGNHARLEATVYQTVNGKPVRYKMSAEVHVHNGRVTKVDVQMDHRLLQRNKK | -0.037 |
| DERELSLFHRWLEVLNDGNEENLKQNMDPNAHANIGEKEIHGMEDFARHMITKVKELRIKIDDIKSSAHNGRLTASIDQQDNDNGKPDKYTNTFRAKFSNGQIQSQKVERDG | -0.31 |
| DEREMKQFIELMKQKQTGNEHHVREMFDPNAQIKVGDKTVHGKDNIREQAHRERKEMREDFRIESLDHDGERVVIKYEVQQNHNGRPKTYDVEAEAEVHNGHFKFVSVDNTE | -0.399 |
| DERENKKHAEQLARVFQTGDHDQLRKMMPPDAKAQVGDKEYQGRDSVLHDIKRFLRQADSITIQSVTVQGNTLNIHIQLDINGKDFQAVIEVEMHNGKVVRIVIKES | -0.044 |
| DERENQENVEEMNRVLQSGDEDRMKELVDPNATAVVGEKRVHGRETIKDEIRRFKDHADHITVERVTAKGNSAIIDIVYNVNGRETTIIVIANVHNGKIRHLHFQKS | 0.301 |
| DEREQIKKVLKRLEDIFKSGDEDKARELIDPNARMEYGDKELHGREKMARFIHELRKRIDHMEISLQDFKVKGDKLVFRAHLEAEVNGRKTSMTLRVVAHVEGDKIKIKEIQIK | 1.65 |
| DERERERQLRDIFRVIQRGDQDRWKEQADENARIHVGDTRVHGQEEARKWFKELVDRADHFSVKRIEVNGDDMILTFEVEFNGKRHTVTIDFNVQNGRIQNINVDPEAERRIRK | 0.048 |
| DERFRRLVHSFIQALHTNNPEEIKELFDPNARMTIGDKQVHGQEDISRLIDRERKEMRLEIKTFSVEDKGDTADVKMKAVWDVNGKPNRHSYDLNFVDHNGKIRSLHARMDSQYLREVKS | -0.074 |
| DERHAHTVVKKIIDALHTGDEDTLRHLADKDVRLQVGEKEVHGREEFAKEMSKFHKRVDHMEIKDVTNTGDHASVKYSAKFDGKTFNARADLVVHNGKLKKMHIDPERQKQMDS | 0.535 |
| DERHEAEKFAQHWMEVWKKGNHTEISKLIDENARVEVGDQKYHGRSQVKTRARQEVERADHVDYTIRSVKVTGNRIDINAQQVFRVNGTEDDQTRKIVLRRQGDKVVVQSIQAG | -0.159 |
